Experimental data reported in patent US7262289.

Molecular target: KCNQ2+KCNQ3 channel (human KCNQ2 co-expressed with human KCNQ3) (human) (UniProt O43526)
Assay: cell-based or functional assay

KCNQ2+KCNQ3 channel (human KCNQ2 co-expressed with human KCNQ3) (human), sequence (O43526 other isoform, or with tags, fused parts or gaps, chain 1 of 2): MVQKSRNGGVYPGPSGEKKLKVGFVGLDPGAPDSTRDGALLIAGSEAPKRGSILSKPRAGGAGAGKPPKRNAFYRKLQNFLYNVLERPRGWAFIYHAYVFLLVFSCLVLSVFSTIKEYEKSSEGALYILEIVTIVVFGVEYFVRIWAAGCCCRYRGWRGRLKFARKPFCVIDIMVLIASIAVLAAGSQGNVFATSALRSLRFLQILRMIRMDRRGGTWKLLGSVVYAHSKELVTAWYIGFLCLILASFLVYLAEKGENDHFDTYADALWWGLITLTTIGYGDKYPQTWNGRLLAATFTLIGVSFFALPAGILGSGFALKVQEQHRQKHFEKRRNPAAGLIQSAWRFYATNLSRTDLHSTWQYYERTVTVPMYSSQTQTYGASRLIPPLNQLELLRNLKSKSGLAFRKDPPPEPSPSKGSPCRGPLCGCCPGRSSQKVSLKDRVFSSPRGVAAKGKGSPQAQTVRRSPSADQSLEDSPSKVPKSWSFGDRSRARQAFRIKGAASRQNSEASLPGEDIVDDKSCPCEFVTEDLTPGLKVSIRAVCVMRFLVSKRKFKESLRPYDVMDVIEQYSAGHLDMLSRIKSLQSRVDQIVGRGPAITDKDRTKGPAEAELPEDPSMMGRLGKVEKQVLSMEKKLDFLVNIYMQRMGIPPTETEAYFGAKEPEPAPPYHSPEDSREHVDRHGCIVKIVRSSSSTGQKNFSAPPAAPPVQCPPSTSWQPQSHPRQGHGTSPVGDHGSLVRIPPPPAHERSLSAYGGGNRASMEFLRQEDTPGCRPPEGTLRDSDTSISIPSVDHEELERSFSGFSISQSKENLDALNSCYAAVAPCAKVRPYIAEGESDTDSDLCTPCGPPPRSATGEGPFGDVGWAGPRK
KCNQ2+KCNQ3 channel (human KCNQ2 co-expressed with human KCNQ3) (human), sequence (O43526 other isoform, or with tags, fused parts or gaps, chain 2 of 2): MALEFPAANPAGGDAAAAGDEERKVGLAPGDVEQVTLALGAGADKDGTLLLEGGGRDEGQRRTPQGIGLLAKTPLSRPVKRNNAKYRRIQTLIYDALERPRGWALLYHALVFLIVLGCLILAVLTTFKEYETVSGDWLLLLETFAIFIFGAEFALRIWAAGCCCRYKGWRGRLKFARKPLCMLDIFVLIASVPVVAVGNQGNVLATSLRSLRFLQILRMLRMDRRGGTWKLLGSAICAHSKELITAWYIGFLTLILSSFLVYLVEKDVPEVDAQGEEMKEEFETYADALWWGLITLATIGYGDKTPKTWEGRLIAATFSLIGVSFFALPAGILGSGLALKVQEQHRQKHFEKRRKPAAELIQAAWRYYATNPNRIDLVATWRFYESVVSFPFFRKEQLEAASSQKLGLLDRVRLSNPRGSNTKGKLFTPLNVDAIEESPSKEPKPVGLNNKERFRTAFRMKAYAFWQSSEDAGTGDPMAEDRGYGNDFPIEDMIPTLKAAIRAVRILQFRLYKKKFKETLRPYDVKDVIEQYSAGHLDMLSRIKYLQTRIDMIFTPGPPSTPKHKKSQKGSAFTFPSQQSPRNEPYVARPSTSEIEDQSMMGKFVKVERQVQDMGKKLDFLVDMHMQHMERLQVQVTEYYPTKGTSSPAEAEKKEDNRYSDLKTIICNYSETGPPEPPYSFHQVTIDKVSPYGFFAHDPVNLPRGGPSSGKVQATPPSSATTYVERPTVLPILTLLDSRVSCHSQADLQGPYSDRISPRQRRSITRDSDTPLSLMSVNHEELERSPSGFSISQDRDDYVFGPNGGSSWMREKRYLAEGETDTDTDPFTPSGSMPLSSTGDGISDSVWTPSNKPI

reduction of peak current amplitude at +30 mV in oocytes co-expressing KCNE1: 62%
Substance: KCNE1
